In patent US20170362324A1 (Biogen, published 2017):
Changes are numbered by the printed parent chain. In names and notes the source's numbering stands.

B1: VH0/VL0 Agly-hIgG1(T299A) (antibody, V domains shown)
VH: EVQLVESGGGLVKPGGSLRLSCAASGYTFTSYWMHWVRQAPGKGLEWVGAIYPGNSDTSYNQKFKGRFTISRDDSKNTLYLQMNSLKTEDTAVYYCTTTTYGYDWFAYWGQGTLVTVSS
VL: DIQMTQSPSSVSASVGDRVTITCKSSQSVLYSSNQKNYLAWYQQKPGKAPKLLIYWASTRESGVPSRFSGSGSGTDFTLTISSLQPEDFATYYCHQYLSSLTFGQGTKVEIK
notes: also called H0/L0
B2: VH4/VL1 Agly-hIgG1(T299A) (antibody, V domains shown)
VH: B1 VH with L4V, E6Q, G16E, A23K, R38K, R67K, R72A, D74T, K76P, L79A
VL: B1 VL with V11L, I21M, S66D, V109L
notes: also called H4/L1
B3: VH2/VL0 Agly-hIgG1(T299A) (antibody, V domains shown)
VH: B1 VH with L4V, E6Q, G16E, R38K, R67K, R72A, D74T, K76S, L79A
VL: B1 VL
notes: also called H2/L0
B4: VH2/VL2 Agly-hIgG1(T299A) (antibody, V domains shown)
VH: B1 VH with L4V, E6Q, G16E, R38K, R67K, R72A, D74T, K76S, L79A
VL: B1 VL with D1N, V11L, I21M, T22S, A49S, S66D, S69T, V109L
notes: also called H2/L2 (Agly-IgG1)
B5: VH0/VL1 Agly-hIgG1(T299A) (antibody, V domains shown)
VH: B1 VH
VL: B1 VL with V11L, I21M, S66D, V109L
notes: also called H0/L1
B6: VH3/VL2 Agly-hIgG1(T299A) (antibody, V domains shown)
VH: B1 VH with L4V, A23K, R38K, R67K, I70L, R72A, D73V, D74T, K76S, L79A
VL: B1 VL with D1N, V11L, I21M, T22S, A49S, S66D, S69T, V109L
notes: also called H3/L2
B7: VH0/VL2 Agly-hIgG1(T299A) (antibody, V domains shown)
VH: B1 VH
VL: B1 VL with D1N, V11L, I21M, T22S, A49S, S66D, S69T, V109L
notes: also called H0/L2
B8: VH0/VL3 Agly-hIgG1(T299A) (antibody, V domains shown)
VH: B1 VH
VL: DIQMTQSPSSLTVSVGDRVTMSCKSSQSVLYSSNQKNYLAWYQQKPGKSPKLLIYWASTRESGVPDRFTGSGSGTDFTLTISSVQPEDFATYYCHQYLSSLTFGAGTKLEIK
notes: also called H0/L3
B9: VH1/VL3 Agly-hIgG1(T299A) (antibody, V domains shown)
VH: B1 VH with L4V, R72A, D74T
VL: B8 VL
notes: also called H1/L3
B10: VH4/VL3 Agly-hIgG1(T299A) (antibody, V domains shown)
VH: B1 VH with L4V, E6Q, G16E, A23K, R38K, R67K, R72A, D74T, K76P, L79A
VL: B8 VL
notes: also called H4/L3
B11: VH2/VL1 Agly-hIgG1(T299A) (antibody, V domains shown)
VH: B1 VH with L4V, E6Q, G16E, R38K, R67K, R72A, D74T, K76S, L79A
VL: B1 VL with V11L, I21M, S66D, V109L
notes: also called H2/L1
B12: VH1/VL1 Agly-hIgG1(T299A) (antibody, V domains shown)
VH: B1 VH with L4V, R72A, D74T
VL: B1 VL with V11L, I21M, S66D, V109L
notes: also called H1/L1
B13: VH2/VL3 Agly-hIgG1(T299A) (antibody, V domains shown)
VH: B1 VH with L4V, E6Q, G16E, R38K, R67K, R72A, D74T, K76S, L79A
VL: B8 VL
notes: also called H2/L3
B14: VH3/VL1 Agly-hIgG1(T299A) (antibody, V domains shown)
VH: B1 VH with L4V, A23K, R38K, R67K, I70L, R72A, D73V, D74T, K76S, L79A
VL: B1 VL with V11L, I21M, S66D, V109L
notes: also called H3/L1
B15: VH5/VL3 Agly-hIgG1(T299A) (antibody, V domains shown)
VH: EVQVQQSGGGLVKPGGSLRLSCKASGYTFTSYWMHWVKQAPGKGLEWVGAIYPGNSDTSYNQKFKGKATLSAVTSPNTAYLQMNSLKTEDTAVYYCTTTTYGYDWFAYWGQGTLVTVSS
VL: B8 VL
notes: also called H5/L3
B16: VH3/VL3 Agly-hIgG1(T299A) (antibody, V domains shown)
VH: B15 VH with Q5V, Q6E, A68F, P76S
VL: B8 VL
notes: also called H3/L3
B17: VH1/VL0 Agly-hIgG1(T299A) (antibody, V domains shown)
VH: B1 VH with L4V, R72A, D74T
VL: B1 VL
notes: also called H1/L0
B18: VH1/VL2 Agly-hIgG1(T299A) (antibody, V domains shown)
VH: B1 VH with L4V, R72A, D74T
VL: B8 VL with D1N, T12S, V13A, V84L, A105Q
notes: also called H1/L2

The binders below were run against T1, human soluble αvβ5 protein (extracellular domains of human αv and β5 integrin subunits) (human, UniProt P06756 31-992; P18084 24-719) (assay: ELISA, inhibition of soluble αvβ5 binding to coated human plasma vitronectin).
T1 construct: also called biotin-αvβ5; hsαvβ5
Method: Vitronectin Inhibition ELISA: 96-well microtiter plates were coated with 5 μg/ml purified human plasma vitronectin diluted in PBS (50 μl/well) at 4° C. overnight. After the coating solution was removed, the plates were blocked with 300 μl/well of 1% BSA/TBS at 25° C. for 1 hr. The plate was washed with wash buffer (0.05% Tween-20 in TBS containing 1 mM CaCl₂ and 1 mM MgCl₂), and dilutions of humanized antibodies mixed with 1 nM soluble αvβ5 protein in TBS containing 1% BSA, 1 mM CaCl₂ and 1 mM MgCl₂ were added (50 μl/well) and incubated at 25° C. for 1 hr. The plate was washed 4 times with wash buffer in an automated plate washer and incubated sequentially with 50 μl/well of the anti-beta5 monoclonal antibody 15F11 (at 0.5 ug/mL) in for 1 hr at 25° C. in TBS containing 1% BSA, 1 mM CaCl₂ and 1 mM MgCl₂. After washing the plate 4 times with wash buffer, 100 μl/well of a 1:5000 dilution of a peroxidase-conjugated goat anti-mouse antibody in TBS containing 1% BSA, 1 mM CaCl₂ and 1 mM MgCl₂ were added and incubated for 1 hr at 25° C. Bound protein was detected using the TMB substrate and indicated by the absorbency measured at 450 nm.
In parallel, the humanized ALULA antibodies were tested in two adhesion assays. One measured the ability of each antibody to inhibit the binding of soluble αvβ5 to purified human plasma vitronectin. In the other assay, the murine BaF3 cell line was stably transfected with human αv and β5 subunits, and the adhesion of these cells to vitronectin was determined using a fluorescence endpoint.

T1 sequence (P06756 31-992 limits assumed, chain 1 of 2): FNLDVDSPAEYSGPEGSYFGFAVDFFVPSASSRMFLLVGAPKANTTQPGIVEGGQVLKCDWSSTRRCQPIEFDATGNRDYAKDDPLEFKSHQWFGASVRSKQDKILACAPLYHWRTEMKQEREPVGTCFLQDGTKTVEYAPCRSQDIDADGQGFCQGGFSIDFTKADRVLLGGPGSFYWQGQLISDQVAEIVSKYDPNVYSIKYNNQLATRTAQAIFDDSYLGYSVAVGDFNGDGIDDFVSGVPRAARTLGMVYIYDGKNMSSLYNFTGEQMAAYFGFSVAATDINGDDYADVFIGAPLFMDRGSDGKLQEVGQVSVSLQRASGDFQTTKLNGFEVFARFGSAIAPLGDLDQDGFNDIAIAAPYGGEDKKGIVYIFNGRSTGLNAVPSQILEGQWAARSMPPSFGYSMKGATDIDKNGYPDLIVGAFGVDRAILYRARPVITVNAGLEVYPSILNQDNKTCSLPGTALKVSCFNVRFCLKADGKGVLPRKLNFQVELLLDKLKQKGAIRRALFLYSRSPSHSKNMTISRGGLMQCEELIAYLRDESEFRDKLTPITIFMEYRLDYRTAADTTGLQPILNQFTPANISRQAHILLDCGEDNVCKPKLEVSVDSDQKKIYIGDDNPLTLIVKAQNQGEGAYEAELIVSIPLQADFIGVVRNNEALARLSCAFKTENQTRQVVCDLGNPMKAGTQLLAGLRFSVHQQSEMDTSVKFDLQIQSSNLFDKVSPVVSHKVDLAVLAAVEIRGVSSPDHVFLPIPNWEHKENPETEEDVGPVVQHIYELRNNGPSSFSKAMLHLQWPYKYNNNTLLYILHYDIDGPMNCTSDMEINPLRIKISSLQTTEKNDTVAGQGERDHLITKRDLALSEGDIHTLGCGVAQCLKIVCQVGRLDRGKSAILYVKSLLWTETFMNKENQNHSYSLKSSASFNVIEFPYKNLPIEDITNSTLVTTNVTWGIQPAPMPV
T1 sequence (P18084 24-719 limits assumed, chain 2 of 2): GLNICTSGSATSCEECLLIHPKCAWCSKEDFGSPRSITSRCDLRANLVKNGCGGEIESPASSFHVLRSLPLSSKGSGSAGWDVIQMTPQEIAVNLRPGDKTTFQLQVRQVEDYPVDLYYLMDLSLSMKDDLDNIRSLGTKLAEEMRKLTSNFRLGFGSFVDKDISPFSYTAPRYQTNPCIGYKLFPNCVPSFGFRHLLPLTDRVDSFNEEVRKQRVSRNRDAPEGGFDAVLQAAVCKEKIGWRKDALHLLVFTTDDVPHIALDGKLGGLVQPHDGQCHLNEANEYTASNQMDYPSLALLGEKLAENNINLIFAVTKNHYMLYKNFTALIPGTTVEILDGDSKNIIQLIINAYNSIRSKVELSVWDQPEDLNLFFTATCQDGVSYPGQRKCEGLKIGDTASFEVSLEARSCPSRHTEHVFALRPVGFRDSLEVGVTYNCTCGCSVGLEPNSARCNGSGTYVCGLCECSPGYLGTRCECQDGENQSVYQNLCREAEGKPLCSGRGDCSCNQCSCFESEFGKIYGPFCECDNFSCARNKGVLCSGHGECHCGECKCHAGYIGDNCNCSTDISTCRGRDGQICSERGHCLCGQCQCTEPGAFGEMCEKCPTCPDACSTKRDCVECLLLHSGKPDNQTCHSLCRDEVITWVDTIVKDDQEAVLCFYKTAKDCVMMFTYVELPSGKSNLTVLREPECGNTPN

IC50 [nM] | Binder
11.1 | B1
0.9 | B2
2.4 | B3
1.1 | B4
11.9 | B5
2.5 | B6

Each binder was assayed against T2, human αvβ5 expressed on BaF3 cells (stably transfected with human αv and β5 subunits) (human, UniProt P06756 31-1048; P18084 24-799) (assay: cell-based or functional assay).
T2 sequence (P06756 31-1048 limits assumed, chain 1 of 2): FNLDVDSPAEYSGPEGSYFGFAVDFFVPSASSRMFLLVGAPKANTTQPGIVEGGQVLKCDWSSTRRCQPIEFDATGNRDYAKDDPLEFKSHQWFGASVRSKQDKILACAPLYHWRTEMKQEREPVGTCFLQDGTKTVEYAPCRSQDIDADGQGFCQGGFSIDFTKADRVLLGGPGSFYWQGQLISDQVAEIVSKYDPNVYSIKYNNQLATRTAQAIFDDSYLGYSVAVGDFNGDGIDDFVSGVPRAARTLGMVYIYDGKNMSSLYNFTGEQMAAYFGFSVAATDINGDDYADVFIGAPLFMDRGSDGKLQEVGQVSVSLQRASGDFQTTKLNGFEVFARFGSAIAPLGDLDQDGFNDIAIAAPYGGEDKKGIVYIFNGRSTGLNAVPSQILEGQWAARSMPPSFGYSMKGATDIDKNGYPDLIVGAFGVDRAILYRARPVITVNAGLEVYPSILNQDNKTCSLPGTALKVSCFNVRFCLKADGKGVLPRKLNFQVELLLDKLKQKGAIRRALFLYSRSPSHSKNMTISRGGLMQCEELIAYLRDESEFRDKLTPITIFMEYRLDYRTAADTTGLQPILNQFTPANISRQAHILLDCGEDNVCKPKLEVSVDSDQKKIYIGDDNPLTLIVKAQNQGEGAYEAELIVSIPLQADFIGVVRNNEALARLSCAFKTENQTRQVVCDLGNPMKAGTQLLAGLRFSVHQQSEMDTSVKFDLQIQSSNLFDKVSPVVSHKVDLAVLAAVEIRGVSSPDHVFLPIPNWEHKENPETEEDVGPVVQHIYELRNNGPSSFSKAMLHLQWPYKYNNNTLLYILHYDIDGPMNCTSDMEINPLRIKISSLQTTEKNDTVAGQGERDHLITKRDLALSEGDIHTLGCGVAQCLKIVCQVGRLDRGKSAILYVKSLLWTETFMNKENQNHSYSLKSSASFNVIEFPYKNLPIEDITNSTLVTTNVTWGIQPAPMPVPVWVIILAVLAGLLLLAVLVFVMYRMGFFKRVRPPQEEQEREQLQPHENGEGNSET
T2 sequence (P18084 24-799 limits assumed, chain 2 of 2): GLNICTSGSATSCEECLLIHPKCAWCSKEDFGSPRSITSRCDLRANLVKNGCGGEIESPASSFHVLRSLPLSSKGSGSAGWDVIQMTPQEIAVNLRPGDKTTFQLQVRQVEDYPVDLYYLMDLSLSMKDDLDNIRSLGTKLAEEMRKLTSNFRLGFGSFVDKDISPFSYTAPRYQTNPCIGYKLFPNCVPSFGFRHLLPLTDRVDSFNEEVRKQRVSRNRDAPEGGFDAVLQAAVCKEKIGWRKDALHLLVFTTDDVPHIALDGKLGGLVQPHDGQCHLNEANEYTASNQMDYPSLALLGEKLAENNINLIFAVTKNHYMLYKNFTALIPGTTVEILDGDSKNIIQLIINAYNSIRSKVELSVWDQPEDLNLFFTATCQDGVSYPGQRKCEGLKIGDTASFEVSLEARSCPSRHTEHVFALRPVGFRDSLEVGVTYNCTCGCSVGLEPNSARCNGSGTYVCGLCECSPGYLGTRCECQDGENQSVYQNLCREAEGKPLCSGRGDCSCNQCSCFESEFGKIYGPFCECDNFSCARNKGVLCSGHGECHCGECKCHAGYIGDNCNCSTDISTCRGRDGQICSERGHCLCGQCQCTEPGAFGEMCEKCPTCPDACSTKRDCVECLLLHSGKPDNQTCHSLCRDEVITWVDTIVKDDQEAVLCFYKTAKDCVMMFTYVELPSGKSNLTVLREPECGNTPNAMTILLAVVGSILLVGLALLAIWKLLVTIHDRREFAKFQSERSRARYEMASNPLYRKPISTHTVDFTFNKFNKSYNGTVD

VN adhesion inhibition, αvβ5-BaF3 (IC50, nM) [nM] | Binder
3 | B1
1 | B2
1.3 | B3
0.4 | B4
2.2 | B5
0.6 | B6

What follows are binders tested against T2, human αvβ5 expressed on BaF3 cells … (assay: FACS on αvβ5-BaF3 cells, unpurified antibody).
Method: FACS Binding Assay: Cells were washed one time in PBS, and then resuspended in FACS buffer (1×PBS, 1% BSA, 1 mM CaCl₂, and 1 mM MgCl₂). 1×10⁶ cells were then incubated on ice for 1 hr in FACS buffer containing the test antibody in a total volume of 50 μl. After incubation, the cells were washed two times with ice cold FACS buffer, resuspended in 50 μl of FACS buffer containing 3 μg/ml goat anti-mouse IgG AlexaFluor488 (Jackson ImmunoResearch), and incubated on ice for 30 min. The cells were then washed twice with ice cold FACS buffer and fixed in 1% PFA overnight. Cell aggregates were removed by filtering through 40 μm filter plates (Millipore) and binding of the labeled secondary antibody was monitored by flow cytometry using a FACS Calibur (BD Biosciences).
(§1) Screening of all combinations of heavy chain versions VH0, VH1, VH2, VH3, VH4, or VH5, with light chains VL0, VL1, VL2, or VL3 was carried out using unpurified proteins in conditioned cell media. The binding of each construct to biotin-conjugated human αvβ5 protein was determined using a solid-phase binding assay (ELISA) and by FACS, and the ability of each construct to block ligand binding was determined using a vitronectin cell adhesion assay (Table 1).

EC50 [nM] | Binder
1120 | B1
855 | B7
126 | B2
1270 | B8
2930 | B9
354 | B3
162 | B10
405 | B11
3360 | B12
646 | B4
990 | B13
1930 | B14
798 | B5
422 | B15
6290 | B16
3310 | B6
3680 | B17
5370 | B18

Each binder was assayed against T1, human soluble αvβ5 protein … (assay: ELISA, biotin-αvβ5 on streptavidin plate, unpurified antibody).
Method: Solid-Phase αvβ5 Binding Assay (ELISA): A 96-well microtiter plate was precoated with streptavidin (Thermo Scientific Reacti-Bind StreptAvidin Coated High Binding Capacity plate) was used. Biotinylated soluble αvβ5 protein (2 μg/mL) in TBS with 1% BSA was added to the wells, and the plate was incubated for 1 hr at 25° C. The plate was washed with wash buffer (0.05% Tween-20 in PBS), and purified humanized ALULA antibody in TBS containing 1% BSA, 1 mM CaCl2, and 1 mM MgCl2 were added (50 μl/well). The plate was incubated for 1 hr at 25° C., washed, and then incubated for 1 hr with 50 μl/well of […] goat anti-human secondary antibody. Bound antibody was detected using 3,3′,5,5′-tetramethylbenzidine (TMB). Binding was indicated by the absorbency measured at 450 nm.
as §1

EC50 [nM] | Binder
1.2 | B1
1 | B7
0.4 | B2
0.9 | B8
2.9 | B9
0.5 | B3
1.7 | B10
1 | B11
1.9 | B12
0.7 | B4
1 | B13
1.2 | B14
1.3 | B5
1.4 | B15
1.2 | B16
0.7 | B6
1 | B17
2.3 | B18

The binders below were run against T1, human soluble αvβ5 protein … (assay: competition ELISA against 1 nM murine ALULA on coated soluble human αvβ5).
Method: Competition ELISA: A 96-well microtiter plate was coated with 50 μl/well of 5 μg/mL soluble human αvβ5 protein at 4° C. overnight. The plate was washed with wash buffer (0.05% Tween-20 in PBS) four times in an automated plate washer. 300 μl/well of 1% BSA in PBS was added and incubated for 1 hr at 25° C. to block nonspecific binding. The plate was washed as above, and dilutions of humanized antibodies mixed with 1 nM murine ALULA in PBS containing 1% BSA, were added (50 μl/well). The plate was incubated for 1 hr at 25° C., washed, and then incubated for 40 minutes with 100 μl/well of […] goat anti-mouse antibody. Bound antibody was detected using 3,3′,5,5′-tetramethylbenzidine (TMB). Binding was indicated by the absorbency measured at 450 nm.
The binding of each construct to soluble, purified human αvβ5 protein was determined by a competition ELISA with murine ALULA (FIG. 4). […] The remaining constructs behaved similarly, with version H4/L2 showing the lowest IC50 value in this assay.

IC50 [nM] | Binder
18.3 | B1
2.2 | B2
3.4 | B3
2.8 | B4
14.2 | B5
3.3 | B6

Biological target: T2, human αvβ5 expressed on BaF3 cells …
Assay: cell-based or functional assay
Remark: another data set of the same source

VN adhesion inhibition, αvβ5-BaF3 (IC50, nM) [nM] | Binder
1770 | B1
1970 | B7
59.8 | B2
494 | B8
1840 | B9
476 | B3
64.8 | B10
318 | B11
2520 | B12
292 | B4
303 | B13
360 | B14
1620 | B5
72.2 | B15
227 | B16
124 | B6
3300 | B17
1730 | B18
